Columns and labels:
[1] = biological target: T1, human CD38 expressed on multiple myeloma cells (KMS11, MM1.S) (human, UniProt P28907 1-300); test: flow cytometry on MM.1S wt cells
T1 construct: whole, on cells; Naturally expressed on KMS11 and MM1.S cell lines; a CD38 knock out MM.1S line served as negative control
T1 sequence (looked up): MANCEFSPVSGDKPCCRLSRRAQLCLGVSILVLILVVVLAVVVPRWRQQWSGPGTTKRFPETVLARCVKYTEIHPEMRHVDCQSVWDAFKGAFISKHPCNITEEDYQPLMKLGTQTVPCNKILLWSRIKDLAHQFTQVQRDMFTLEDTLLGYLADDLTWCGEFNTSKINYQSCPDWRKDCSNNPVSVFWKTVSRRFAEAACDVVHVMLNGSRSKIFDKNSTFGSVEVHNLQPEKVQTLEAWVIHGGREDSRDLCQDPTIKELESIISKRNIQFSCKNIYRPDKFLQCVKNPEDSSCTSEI

[2] = biological target: T1, human CD38 expressed on multiple …; test: flow cytometry on KMS11 wt cells
human CD38 protein = biological target: T2, human CD38 protein (human, UniProt P28907 43-300); test: ELISA, plate coated with human CD38 protein, absorbance at 650 nm
T2 sequence (looked up): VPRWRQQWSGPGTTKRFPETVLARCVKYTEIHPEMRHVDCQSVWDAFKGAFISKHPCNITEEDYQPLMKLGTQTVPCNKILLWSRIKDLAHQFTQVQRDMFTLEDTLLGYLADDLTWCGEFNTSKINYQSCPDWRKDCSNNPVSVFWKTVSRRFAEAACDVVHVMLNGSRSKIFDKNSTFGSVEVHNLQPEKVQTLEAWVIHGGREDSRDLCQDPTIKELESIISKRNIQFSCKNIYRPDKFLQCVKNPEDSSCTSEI
Method: Binding of the humanized antibody to human CD38 was tested. The ELISA plate was coated with 0.1 mg/well of human CD38 protein. 1t antibody (humanized anti-aNKp46 antibody or humanized anti-CD38 antibody) was added at 0.1 mg/well. Secondary antibody was diluted 1:7500. After addition of Streptavidin-HRP and TMB substrate the optical absorbance was measured at 650 nm.

B1: NKE2 with wild type (WT) Fc (bispecific antibody, human IgG1, kappa)
heavy: not shown
light 1: DIVMTQSPATLSLSPGERATLSCRASQSISDYLHWFQQKPHESPRLLIKYASQSISGIPARFSGSGSGSDFTLTISSLEPEDFAVYYCQNGHSFPLTFGPGTKVDIKRTVAAPAVFIFPPSDEQLKSGTASVVCLLKNFYPREAKVQWKVDNALQSGNSQESVTEQDSKDSTYSLSSTLTLSKADYEKHKVYACEVTHQGLSSPVTKSFNRGEC
light 2: DIQMTQSPSSLSASVGDRVTITCRASENIYSFLAWYQQKPGKAPKLLIYNTKTLTEGVPSRFSGSGSGTDFTLTISSLQPEDFATYYCQHHYGIPLTFGGGTKVEIKRTVAAPSVFIFPPSDEQLKSGTASVVCLLNNFYPREAKVQWKVDNALQSGNSQESVTEQDSKDSTYSLSSTLTLSKADYEKHKVYACEVTHQGLSSPVTKSFNRGEC
notes: Tetravalent IgG1-like tandem-Fab molecule: anti-CD38 Fab, linker, humanized 09 anti-NKp46 Fab, hinge, IgG1 Fc; also called NKE2 WT; NKE2 WT-Fc
EC50 (read off the curve) [1]: ~0.3 µg/mL
EC50 (read off the curve) [2]: ~0.2 µg/mL

B2: NKE2 with mutant null Fc (bispecific antibody, human IgG1, kappa, L234A L235A)
heavy: not shown
light 1: DIVMTQSPATLSLSPGERATLSCRASQSISDYLHWFQQKPHESPRLLIKYASQSISGIPARFSGSGSGSDFTLTISSLEPEDFAVYYCQNGHSFPLTFGPGTKVDIKRTVAAPAVFIFPPSDEQLKSGTASVVCLLKNFYPREAKVQWKVDNALQSGNSQESVTEQDSKDSTYSLSSTLTLSKADYEKHKVYACEVTHQGLSSPVTKSFNRGEC
light 2: DIQMTQSPSSLSASVGDRVTITCRASENIYSFLAWYQQKPGKAPKLLIYNTKTLTEGVPSRFSGSGSGTDFTLTISSLQPEDFATYYCQHHYGIPLTFGGGTKVEIKRTVAAPSVFIFPPSDEQLKSGTASVVCLLNNFYPREAKVQWKVDNALQSGNSQESVTEQDSKDSTYSLSSTLTLSKADYEKHKVYACEVTHQGLSSPVTKSFNRGEC
notes: As NKE2 WT but with IgG1 L234A/L235A Fc; also called NKE2 Mut Fc (Fc silent); NKE2 MUT
EC50 (read off the curve) [1]: ~0.3 µg/mL
EC50 (read off the curve) [2]: ~0.2 µg/mL

B3: humanized anti-CD38 antibody (antibody, V domains shown)
VH: QVQLVQSGAEVKKPGASVKVSCKASGYTFTSYWMQWVRQAPGQGLEWMGAIYPGDGDTRYTQKFKGRVTMTRDTSTSTVYMELSSLRSEDTAVYYCARERTTGAPRYFDVWGQGTLVTVSS
VL: DIQMTQSPSSLSASVGDRVTITCRASENIYSFLAWYQQKPGKAPKLLIYNTKTLTEGVPSRFSGSGSGTDFTLTISSLQPEDFATYYCQHHYGIPLTFGGGTKVEIK
notes: also called CD38-IgG1 L234A, L235A; CD38-IgG1 wildtype
binding result (human CD38 protein): binds
